# Data from paper PMC8293163 (2021).
# Substitutions are numbered along the chain they refer to.
# B1: 10E8v4-P100fA Fab (Fab, V domains shown)
# VH: EVRLVESGGGLVKPGGSLRLSCSASGFDFDNAWMTWVRQPPGKGLEWVGRITGPGEGWSVDYAESVKGRFTISRDNTKNTLYLEMNNVRTEDTGYYFCARTGKYYDFWSGYAPGEEYFQDWGQGTLVIVSS
# VL: ASELTQDPAVSVALKQTVTITCRGDSLRSHYASWYQKKPGQAPVLLFYGKNNRPSGIPDRFSGSASGNRASLTITGAQAEDEADYYCSSRDKSGSRLSVFGGGTKLTVL
# B2: 10E8v4-H31FLC Fab (Fab, V domains shown)
# VH: B1 VH with A112P
# VL: SELTQDPAVSVALKQTVTITCRGDSLRSFYASWYQKKPGQAPVLLFYGKNNRPSGIPDRFSGSASGNRASLTITGAQAEDEADYYCSSRDKSGSRLSVFGGGTKLTVL
# B3: 10E8v4-P100fA-P100gA Fab (Fab, V domains shown)
# VH: B1 VH with P113A
# VL: B1 VL
# B4: 10E8v4-P100gA Fab (Fab, V domains shown)
# VH: B1 VH with A112P, P113A
# VL: B1 VL
# B5: 10E8v4 Fab (Fab, V domains shown)
# VH: B1 VH with A112P
# VL: B2 VL with F29H
# What was measured:
# T117-F MPER scaffold [1] = assay: BLI
# T117-F MPER scaffold [2] = assay: BLI; remark: listed apart in the source
binder,measurement,setting,value
B1,koff,T117-F MPER scaffold [1],0.021 s⁻¹
same,Kd,T117-F MPER scaffold [2],103 nM
B2,koff,T117-F MPER scaffold [1],0.0364 s⁻¹
same,Kd,T117-F MPER scaffold [2],1460 nM
B3,koff,T117-F MPER scaffold [1],0.0583 s⁻¹
same,Kd,T117-F MPER scaffold [2],2750 nM
B4,koff,T117-F MPER scaffold [1],0.0314 s⁻¹
same,Kd,T117-F MPER scaffold [2],171 nM
B5,koff,T117-F MPER scaffold [1],0.00137 s⁻¹
same,Kd,T117-F MPER scaffold [2],9.4 nM
